In the supplement of paper PMC7877785:
± gives the uncertainty stated by the source.

Experiment: self-splicing fitness, log relative to wild type (ln ratio); higher = more splicing; Tetrahymena group I intron in knt gene, E. coli kanamycin selection, DiMSum; sequences stand for … in CUCUCU…GGAGGGAAAAGUUAUCAGGCAUGCACCUGGUAGCUAGUCUUUAAACCAAUAGAUUGCAUCGGUUUAAAAGGCAAGACCGUCAAAUUGCGGGAAAGGGGUCAACAGCCGUUCAGUACCAAGUCUCAGGGGAAACUUUGAGAUGGCCUUGCAAAGGGUAUGGUAAUAAGCUGACGGACAUGGUCCUAACCACGCAGCCAAGUCCUAAGUCAACAGAUCUUCUGUUGAUAUGGAUGCAGUUCACAGACUAAAUGUCGGUCGGGGAAGAUGUAUUCUUCUCAUAAGAUAUAGUCGGACCUCUCCUUAAUGGGAGCUAGCGGAUGAAGUGAUGCAACACUGGAGCCGCUGGGAACUAAUUUGUAUGCGAAAGUAUAUUGAUUAGUUUUGGAGUACUCGUGGUCG
Outline: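 Colonies from six replicate transformations of E. coli BL21(DE3) were pooled and amplicon-sequenced on an Illumina HiSeq 2500. The library placed an intron with all eight P1ex-region nucleotides randomised inside the knt kanamycin-resistance gene on pET-22b(+), and cells grew overnight at 37°C or 30°C on LB agar with or without 25 μg/mL kanamycin (plus 100 μg/mL carbenicillin, 50 μM IPTG, 0.2% rhamnose). Fitness is the DiMSum error-weighted combination of wild-type-normalised replicate fold changes, kanamycin versus none.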

Sequence	self-splicing fitness (ln) (30 °C)	self-splicing fitness (ln) (37 °C)
AAUCAGCAAUAUUACGGACG	-0.448 ± 0.068	0.478 ± 0.12
CGUCAGCAAUAUUACGCACA	-0.869 ± 0.09	0.0106 ± 0.13
CCCCAGCAAUAUUACGGACU	-3.61 ± 0.14	-3.13 ± 0.19
UAUCAGCAAUAUUACGCACA	-0.305 ± 0.087	0.32 ± 0.14
UUGGAGCAAUAUUACGUGUG	-3.71 ± 0.2	-2.38 ± 0.14
GUCCAGCAAUAUUACGCGAU	-3.24 ± 0.19	-2.4 ± 0.19
CACGAGCAAUAUUACGGGGG	-3.04 ± 0.19	-2.52 ± 0.25
ACCGAGCAAUAUUACGGUCG	-3.22 ± 0.23	-1.68 ± 0.15
AUUAAGCAAUAUUACGCCCG	-1.13 ± 0.22	0.13 ± 0.33
AGAUAGCAAUAUUACGUAGA	-3.03 ± 0.15	-1.77 ± 0.16
UGUAAGCAAUAUUACGAUAA	-1.12 ± 0.1	0.257 ± 0.13
UUGGAGCAAUAUUACGGGGU	-4.02 ± 0.4	-2.44 ± 0.33
AUCUAGCAAUAUUACGAGAC	-4.67 ± 0.42	-3.22 ± 0.3
UGAAAGCAAUAUUACGCACG	-1.4 ± 0.11	0.111 ± 0.13
GCGUAGCAAUAUUACGUUAU	-3.72 ± 0.35	-1.89 ± 0.18
AUGCAGCAAUAUUACGAAAU	-2.02 ± 0.13	-0.358 ± 0.11
AAAUAGCAAUAUUACGGCCU	-0.218 ± 0.095	0.661 ± 0.17
CAAGAGCAAUAUUACGCACU	-3.06 ± 0.33	
CGGAAGCAAUAUUACGGCUA	-2.54 ± 0.46	-0.623 ± 0.28

Sequence	self-splicing fitness (ln) (30 °C)	self-splicing fitness (ln) (37 °C)
UAGCAGCAAUAUUACGUGAA	-1.71 ± 0.16	-0.671 ± 0.18
AAUAAGCAAUAUUACGAAGG	-3.39 ± 0.48	-2.04 ± 0.39
CACUAGCAAUAUUACGCUCA	-2.66 ± 0.21	-2.08 ± 0.17
UGCAAGCAAUAUUACGGCAG	-0.827 ± 0.078	-0.0588 ± 0.12
GGUCAGCAAUAUUACGUUGG	-3.35 ± 0.21	-2.51 ± 0.2
UUUUAGCAAUAUUACGACAU	-2.164 ± 0.021	-1.09 ± 0.036
CCGUAGCAAUAUUACGUUGU	-3.87 ± 0.16	-2.3 ± 0.18
CCUGAGCAAUAUUACGAUUC	-3.56 ± 0.27	
AUCGAGCAAUAUUACGCUAG	-4.43 ± 0.46	-2.64 ± 0.33
AAACAGCAAUAUUACGGAUC	-2.82 ± 0.11	-1.73 ± 0.11
UACAAGCAAUAUUACGGCUG	-0.22 ± 0.1	0.307 ± 0.16
AGAUAGCAAUAUUACGAGGA	-2.21 ± 0.21	-2.65 ± 0.48
AAUUAGCAAUAUUACGCUGU	-1.44 ± 0.16	-1.26 ± 0.2
GCCCAGCAAUAUUACGUUAC	-2.2 ± 0.083	-0.962 ± 0.087
AUCAAGCAAUAUUACGGAAU	-1.94 ± 0.071	-1.03 ± 0.083
GCGCAGCAAUAUUACGUUCU	-0.657 ± 0.093	0.0134 ± 0.11
CUAAAGCAAUAUUACGCGUG	-1.09 ± 0.075	0.243 ± 0.11
UGGUAGCAAUAUUACGGCCA	-2.07 ± 0.3	-1.94 ± 0.45
CAAAAGCAAUAUUACGUUCC	-2.34 ± 0.33	-2.17 ± 0.36
